Test results from PMC9021188 (2022).
Like-named read-outs stand apart in the source and are kept apart here.

Experiments:
Assay in all cases: BLI
GD-pangolin RBD protein = GD-pangolin RBD protein (pangolin-CoV-GD)
SARS-CoV RBD protein = SARS-CoV RBD protein (SARS-CoV, UniProt P59594)
GX-pangolin RBD protein = GX-pangolin RBD protein (pangolin-CoV-GX)
RaTG13 RBD protein [1] = target: RaTG13 RBD protein (RaTG13)
RaTG13 RBD protein [2] = target: RaTG13 RBD protein (RaTG13); remark: listed apart in the source

B1: GW01 (antibody, V domains shown)
VH: EVQLVESGGGVVQPGGSLRLSCAASGFRFDDHAMHWVRQAPGKGLEWVSVISGDGGSTYYADSVKGRFSISRDDSKNSLYLQMNSLRTEDTALYYCAKDRSYGPPDVFNYEYGMDVWGQGTTVTVSS
VL: not shown
In the case of B1, the Kd (GD-pangolin RBD protein) is reported as 4.05 nM, the Kd (SARS-CoV RBD protein) is reported as 1.49 nM and the Kd (GX-pangolin RBD protein) is reported as 7.42 nM. It also gave a Kd (RaTG13 RBD protein [1]) of 14.4 nM and a Kd (RaTG13 RBD protein [2]) of 14.2 nM.
